Experimental data as given in patent publication US20060235215A1 (published 2006).

Key:
[1] = biological target: T1, O. sativa Cellulose Synthase Catalytic Subunit, RSW1-Like, bait fragment aa 316-583 (Oryza sativa, UniProt A2Y0X2 316-583); assay: yeast two-hybrid
T1 construct: bait; also called OsCS; PN19707
T1 sequence: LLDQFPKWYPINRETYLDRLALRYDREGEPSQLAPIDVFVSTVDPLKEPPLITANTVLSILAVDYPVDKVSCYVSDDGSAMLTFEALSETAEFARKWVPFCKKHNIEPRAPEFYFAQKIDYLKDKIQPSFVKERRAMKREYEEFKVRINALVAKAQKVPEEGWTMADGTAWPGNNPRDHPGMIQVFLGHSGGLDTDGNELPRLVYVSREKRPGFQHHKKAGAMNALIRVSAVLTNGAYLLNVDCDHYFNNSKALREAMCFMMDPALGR
Experimental: Yeast carrying the target gene construct was combined with yeast carrying the activation domain library. The two yeast strains mated to form diploid yeast and were plated on media that selected for expression of one or more Ga14p-responsive reporter genes. Thus, both hybrid proteins (i.e., the target “bait” protein and the activation domain “prey” protein) were expressed in a yeast reporter strain where an interaction between the test proteins results in transcription of the reporter genes […]. Colonies that arose after incubation were selected for further characterization. The activation domain plasmid was isolated from each colony obtained in the two-hybrid search. The sequence of the insert in this construct was obtained by sequence analysis (e.g., Sanger's dideoxy nucleotide chain termination method; see Ausubel et al., 1988, including updates up to 2002). Thus, the identity of positives obtained from these searches was determined by sequence analysis against proprietary and public (e.g., GENBANK®) nucleic acid and protein databases.
A second bait, namely O. sativa Cellulose Synthase Catalytic Subunit, RSW1-Like (OSCS; PN19707; GENBANK® Accession No. AF030052), was also used.

[2] = biological target: T2, O. sativa 14-3-3 Protein Homolog GF14-c, bait fragment aa 1-150 (Oryza sativa, UniProt Q6ZKC0 1-150); assay: yeast two-hybrid
T2 construct: bait; also called OsGF14-c; PN12464
T2 sequence: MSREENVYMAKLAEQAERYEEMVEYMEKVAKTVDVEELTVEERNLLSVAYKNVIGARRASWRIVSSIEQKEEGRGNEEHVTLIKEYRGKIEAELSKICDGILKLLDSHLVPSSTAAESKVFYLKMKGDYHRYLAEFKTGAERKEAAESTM

| Binder | binding result [1] | binding result [2] |
| --- | --- | --- |
| O. sativa Cellulose Synthase Catalytic Subunit, RSW1-Like, prey clone aa 316-582 (enzyme, prey; AD fusion; input trait library; also called OsCS; PN19707) LLDQFPKWYPINRETYLDRLALRYDREGEPSQLAPIDVFVSTVDPLKEPPLITANTVLSILAVDYPVDKVSCYVSDDGSAMLTFEALSETAEFARKWVPFCKKHNIEPRAPEFYFAQKIDYLKDKIQPSFVKERRAMKREYEEFKVRINALVAKAQKVPEEGWTMADGTAWPGNNPRDHPGMIQVFLGHSGGLDTDGNELPRLVYVSREKRPGFQHHKKAGAMNALIRVSAVLTNGAYLLNVDCDHYFNNSKALREAMCFMMDPALG | binds |  |
| Hypothetical Protein OsContig3864, Similar to H. vulgare Photosystem I Reaction Center Subunit II, Chloroplast Precursor, prey clone aa 94-203 (other, prey; AD fusion; input trait library; also called OsPN23061) VITWTSPKEQVFEMPTGGAAIMREGPNLLKLARKEQCLALGTRLRSKYKINYQFYRVFPNGEVQYLHPKDGVYPEKVNAGRQGVGQNFRSIGKNVSPIEVKFTGKNVFDI |  | binds |
| Novel Protein PN29982, prey clone aa 201-300 (other, prey; AD fusion; input trait library; also called OsPN29982) SPVVDNADVTETKPQTELPVHVMCAEWSSQKRLKKVQLETLERVYSRTKRPTNTMISSIVQVTSLPRKTIVKWFEDRREQDGVPDHRVAFKRSLSETIAS |  | binds |
| Novel Protein PN29084, Fragment, Similar to Soybean (Glycine max) Calcium-Dependent Protein Kinase, prey clone aa 1-253 (other, prey; AD fusion; output trait library; three clones; also called OsPN29084) ESGIFRQILRGKLDLESDPWPSISDSAKDLVRNMLIRDPTKRFTAHEVLCHPWIVDDAVAPDKPIDSAVLSRLKHFSAMNKLKKMALRVIAESLSEEEIGGLKELFKMIDTDNSGTITYDELKNGLKRVGSDLMEPEIQALMDAADIDNSGTIDYGEFLAATLHMNKLEREENLVSAFTFFDKDGSGFITIDELSQACEQFGLSDVHLEDMIKDVDQNNDGQIDYSEFAAMMRKGNAGGANAGGVTSTGGTGR | binds |  |
| O. sativa Fructose-Bisphosphate Aldolase, Chloroplast Precursor, prey clone aa 206-269 (enzyme, prey; AD fusion; input trait library; also called OsBAA02730; PN22832) QDNGLVPIVEPEILLDGEHGIDRTFEVAQKVWAETFFYMAENNVMFEGILLKPSMVTPGAECKD |  | binds |
| O. sativa salT Gene Product, prey clone aa 6-145 (other, prey; AD fusion; output trait library; also called OsAAB53810; PN29086) IGPWGGNGGSAQDISVPPKKLLGVTIYSSDAIRSIAFNYIGVDGQEYAIGPWGGGESTSTEIKLGSSEQIKEISGTHGPVYDLADIVTYLKIVTSANNTYEAGVPNGKEFSIPLQDSGHVVGFFGRSGTLIDAIGIYVHP | binds |  |
| Novel Protein PN22866, Fragment, Similar to A. thaliana Vacuolar ATP Synthase Subunit C, prey clone aa 95-305 (other, prey; AD fusion; input trait library; also called OsPN22866) LLALSDDLVKSNVFIEGVSHKIRRQIEELERAGGVESGALTVDGVPVDTYLTRFVWDEGKYPTMSPLKEIAGSIQSQVSKIEDDMKVRGAEYNNVRSQLNAINRKQTGSLAVRDLSNLVKPEDMVTSEHLVTLLAVVPQYSQKDWLSSYESLDTFVVPRSSKKLYEDNEYALYTVTLFAKVVDNFKVRAREKGFQVRDFEYSSEAQESRKE |  | binds |
| SPEEWSPTGDTYVGGTTGLLIWAVTLAGLLGGGALLVYNTSALAG (other, prey; AD fusion; input trait library; also called OsAAB46718; PN22840) [O. sativa Photosystem II 10 kDa Polypeptide, prey clone aa 82-126] |  | binds |
| Novel Protein 22858, Fragment, similar to Arabidopsis GTP Cyclohydrolase II, prey clone aa 27-154 (other, prey; AD fusion; input trait library; also called OsPN22858) DKPTDGFSSIDEAIGALHEGKFVIAVDDESGDNEGDLVMAATLADPESIAFMIRNGSGIISVGMKEEDLTRLMIPMMSPIAEIEDISAAASTVTVDARVGISTGVSAADRAKTIFTLASPDSKPTDLR |  | binds |
| O. sativa Aquaporin, prey clone aa 123-290 (other, prey; AD fusion; output trait library; also called OsPIP2A; OsPIP2a) RKVSLVRAILYIVAQCLGAICGVGLVNAFPNAYFNRYGGGANTLAAGYSKGTGLAAEIIGTFVLVYTVFSATDPKRNARDSHVPVLAPLPIGFAVFMVHLATIPITGTGINPARSIGAAVIFNNEKAWHNHWIFWVGPFVGAAIAAFYHQYILRAGAIKALGSFRSNA | binds |  |
| OsContig4331, O. sativa Putative 33 kDa Oxygen-Evolving Protein of Photosystem II, prey clone aa 90-169 (other, prey; AD fusion; input trait library; also called OsPN23059) PRRLTFDEIQSKTYMEVKGTGTANQCPTVEGGVDSFAFKAGKYNMKKFCLEPTSFTVKAEGVAKNAPPEFQKTKLMTRLT |  | binds |
| Novel Protein PN29119, Fragment, prey clone aa 1-155 (printed -53 to 155) (other, prey; AD fusion; output trait library; clone also holds a portion of the 5' untranslated region; also called OsPN29119) MEFEADGARWPEPRGDAAGAPPLERGDAPSPRFDSSRALRLLRELGSNVTEDLVVLMPNLLSFLKHDDPVVVNQSIASGTNLFAAVLEEMTLQINKCGRVDAWLEEMWAWTKQFKDAVHNLIHESVPVATKLFAVKFIETWILCFAPQSKSDRMQ | binds |  |
| AIDTYDDHRMAMAFSLAACADVPVTIRDPGCTRKTFPNYFDVLSTFVRN (enzyme, prey; AD fusion; input trait library; also called OsBAB61062; PN22844) [O. sativa 3-Phosphoshikimate 1-carboxyvinyltransferase (a.k.a. EPSP Synthase), prey clone aa 463-511] |  | binds |
| Novel Protein PN30974, prey clone aa 38-178 (other, prey; AD fusion; input trait library; also called OsPN30974) GGYDHPGLIPGLPDEISLQILARMPRMGYLNAKMVSRSWKAAITGVELYRVRKELGVSEEWLYMLTKSDDGKLVWNAFDPVCGQWQRLPLMPGISHGGECKRGIPGLWLGDLLSAGIRVSDVIRGWLGQRDSLDRLPFCGC |  | binds |
| Novel Protein PN30846 (putative dynamin homolog), prey clone aa 1-266 (other, prey; AD fusion; input trait library; also called OsPN30846) APRRPSTFLNAVALGNVGAGKSAVLNSLIGHPVLPTGENGATRAPIVVDLQRDPGLSSKSIVLQIDSKSQRVSASSLRHSLQDRLSKGASSGSSRGRVEGINLKLRTSTAPPLKLVDLPGIDQRAVDDPMINEYAGHNDAILLVVIPAMQAADVASSRALRLAKDIDADGTRTVGVISKVDQAEGDAKTIACVQALLLNKGPKNLPDIEWVALIGQSVAIASAQAAGSENSLETAWNAEAETLRSILTGAPKSKLGRIALVDTIAK |  | binds |
| Novel Protein 22874, Fragment, similar to Arabidopsis Putative Phosphatidylinositol-4-phosphate 5-kinase, prey clone aa 1-88 (other, prey; AD fusion; input trait library; also called OsPN22874; rice PI4P5K) GTNPGFRVGEIRLSNRDIYFGTLLGNTPEGSGRYVWSDGCTYDGEWRRGMRHGQGKTMWPSGATYEGEYSGGYIYGEGTYTGSDNIVY |  | binds |
| O. sativa Ribulose Bisphosphate Carboxylase/Oxygenase Activase, Large Isoform A1, prey clone aa 68-210 (enzyme, prey; AD fusion; input trait library; also called OsRCAA1; PN19842) DISDDQQDITRGKGFVDSLFQAPTGDGTHEAVLSSYEYLSQGLRTYDFDNTMGGFYIAPAFMDKLVVHISKNFMTLPNIKVPLILGIWGGKGQGKSFQCELVFAKMGINPIMMSAGELESGNAGEPAKLIRQRYREAADIIKK |  | binds |
| OsContig4331, O. sativa Putative 33 kDa Oxygen-Evolving Protein of Photosystem II, prey clone aa 193-333 (other, prey; AD fusion; input trait library; also called OsPN23059) DGIDYAAVTVQLPGGERVPFLFTIKNLVATGKPESFGGPFLVPSYRGSSFLDPKGRGGSTGYDNAVALPAGGRGDEEELAKENVKNASSSTGNITLSVTKSKPETGEVIGVFESVQPSDTDLGAKVPKDVKIQGVWYAQLE |  | binds |
| Novel Protein PN29116, Fragment, prey clone aa 1-169 (other, prey; AD fusion; output trait library; also called OsPN29116) GRKPVAAQHYNKGDKDGTSTGSRCTSVAWVPEREGIFVVSHSDGNLYVYDKCKDGNTECTFPAIKDPAQLMISHAKSSKSNPIARWHVCQGSINAISFSPDGAYLATVGRDGYLRVFDFSKEQLIFGGKSYYGALLCCTWSSDGKYLLTGGEDDLVQVWSMDDRKIVAW | binds |  |
| Novel Protein PN29077, Fragment, Similar to A. thaliana DNA-Damage Inducible Protein DDI1-Like, prey clone aa 1-242 (other, prey; AD fusion; output trait library; four clones; also called OsPN29077) VEAQKKIEAAIRQKGIDENWEAALEHNPEAFARVVMLYVDMEVNGVPLKAFVDSGAQSTIISKSCAERCGLLRLLDQRYRGVAIGVGQSEILGRIHVAPIKIGHVFYPCSFTVLDAPNMEFLFGLDMLRKHQCIIDLKDNVLRVGGGEVSVPFLQEKDIPSHIRDEEKLSKLASLSQGAAGESSTAREKTPDAPPRAPTTGAPAVNPPQPQGGGDFEAKVTKLVELGFDRASVIQALKLFNG | binds |  |
| Novel Protein PN29117, prey clone aa 1-151 (printed -7-151) (other, prey; AD fusion; output trait library; clone also holds a small portion (-7 to 0) of the 5' untranslated region; also called OsPN29117; BAG-like protein) MLVQRRDGDTGPAVRLRVSHGASFRDVAVPAHSTFGELKGVLTQATGVEPERQRLFFRGKEKSDNEFLHTAGVKDGAKLLLLEKPAPANVEQRAEPVIMDESMMKACEAVGRVRAEVDRLSAKVCDLEKSVFAGRKIEDKDFVVLTELLMM | binds |  |
| O. sativa DNAJ Homologue, prey clone aa 1-92 (other, prey; AD fusion; output trait library; also called OsPN29113) CKVSYIDAILGTTVKVPTVDGMVDLKIPSGTQPGTTLVMSKKGVPLLGKSNARGDQLVRVQVEIPKRLSSDERKLIEELANLNKAQTANSRR | binds |  |
| Novel Protein PN29115, Fragment, Similar to A. thaliana 6,7-Dimethyl-8-Ribityllumazine Synthase Precursor, prey clone aa 1-188 (other, prey; AD fusion; output trait library; also called OsPN29115) VSFPYSPRPAALAAGARASRVSPVVVAAGGGHQRLMGSLTNTQGLRFGVVVARFNEIVTNLLLQGALETFERYSVKKENITVLSVPGSFEIPVAAQKLGKSGKFDANFVHWRCAFRGDTTHYGAVANSAASGVLSAGLSAEIPCIFGVLTCDDMDQALNRAGGKAGNKGAEAALTAIEMASLFQHHLA | binds |  |
| Novel Protein PN29076, Fragment, prey clone aa 1-187 (other, prey; AD fusion; output trait library; also called OsPN29076) ERDISMVNSYPPSAFDCKGWNSASIFIYESDEEIQCLLDWLRDYDPREKELKDSILQWQRHFCHQSSSPLVDPPISGPKGEQLMELPNTKAAVILEQKYGLQLDQDTSDLPKKRGKKIKLSSEDRTYRCDCLEPVWPSRYHCLTCHETYLISTEFEGHNDGKCSKIHQSPDESRENDEPKVKVTKSD | binds |  |
